From publication PMC4614378, “A cancer-associated mutation inactivates a region of the high-mobility group protein HMG20b essential for cytokinesis” (Cell Cycle, 2014)
No end group written: not given here.

Legend:
Assay in all cases: pull-down; 1 nmol biotinylated BRC5 peptide on Dynabeads M-280 Streptavidin, 100 pmol purified HMG20b fragment; 50mM Tris-HCl pH 7.4, 150mM NaCl, 1% NP-40, 5mM EDTA, 10mM NaF, 0.1% BSA; 30 minutes at room temperature; Coomassie staining
Conditions in all cases: both partners purified
[1] = target: T1, full-length HMG20b with C-terminal 6xHis tag (human, UniProt Q9P0W2 1-317)
T1 construct: cloned in pET21a; also called His-HMG20b; source: E. coli BL21 (DE3), purified (Ni-NTA agarose)
T1 sequence (looked up): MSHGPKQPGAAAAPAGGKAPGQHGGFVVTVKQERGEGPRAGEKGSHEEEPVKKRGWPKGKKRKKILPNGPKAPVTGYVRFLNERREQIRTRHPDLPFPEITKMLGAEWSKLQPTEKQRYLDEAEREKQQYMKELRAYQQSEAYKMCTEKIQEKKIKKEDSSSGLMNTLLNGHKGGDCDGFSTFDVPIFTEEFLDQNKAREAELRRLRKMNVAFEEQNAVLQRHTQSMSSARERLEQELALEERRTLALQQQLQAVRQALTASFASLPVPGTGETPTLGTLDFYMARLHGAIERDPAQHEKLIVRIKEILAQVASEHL

[2] = target: T2, HMG20b fragment aa173-317 with C-terminal 6xHis tag (human, UniProt Q9P0W2 173-317)
T2 construct: cloned in pET21a; also called C-terminal fragment; source: E. coli BL21 (DE3), purified (Ni-NTA agarose)
T2 sequence (looked up): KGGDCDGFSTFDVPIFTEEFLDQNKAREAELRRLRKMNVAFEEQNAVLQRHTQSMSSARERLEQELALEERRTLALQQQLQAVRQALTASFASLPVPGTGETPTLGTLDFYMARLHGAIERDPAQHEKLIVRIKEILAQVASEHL

[3] = target: T3, HMG20b fragment aa113-317 with C-terminal 6xHis tag (human, UniProt Q9P0W2 113-317)
T3 construct: cloned in pET21a; source: E. coli BL21 (DE3), purified (Ni-NTA agarose)
T3 sequence (looked up): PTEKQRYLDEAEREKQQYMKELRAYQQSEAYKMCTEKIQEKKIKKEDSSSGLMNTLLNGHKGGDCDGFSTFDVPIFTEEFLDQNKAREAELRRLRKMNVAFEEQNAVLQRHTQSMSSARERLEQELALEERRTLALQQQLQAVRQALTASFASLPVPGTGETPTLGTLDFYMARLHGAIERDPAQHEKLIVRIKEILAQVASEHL

[4] = target: T4, HMG20b fragment aa173-276 with C-terminal 6xHis tag (human, UniProt Q9P0W2 173-276)
T4 construct: cloned in pET21a; also called C-terminal Δ1; source: E. coli BL21 (DE3), purified (Ni-NTA agarose)
T4 sequence (looked up): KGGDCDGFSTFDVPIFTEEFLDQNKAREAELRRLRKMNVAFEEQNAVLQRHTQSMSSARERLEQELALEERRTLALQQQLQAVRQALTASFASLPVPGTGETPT

Measured: binding result

B1: Biotinylated BRC5 peptide (BRCA2 amino acid residues 1661-1695) (peptide, UniProt P51587 1661-1695, looked up)
peptide: YSVIENSALAFYTSCSRKTSVSQTSLLEAKKWLRE
modifications: also: biotinylated (position not given here)
notes: BRCA2, human, BRC5 repeat motif, residues 1661-1695; also called Biotin-BRC5 peptide; BRC5 repeat; source: synthetic peptide (Cambridge Research Biochemicals)
binds: all assays above
